The experiment deals with cdk2/cyclin A complex (UniProt P24941 1-298; P20248 1-432). Description: cell-based or functional assay.

The record followed here is US20160145299A1 (CENTRE NATIONAL DE LA RECHERCHE SCIENTIFIQUE, published 2016).

Where no end group is shown, it is not given here.

B1: Peptide targeting CDK/Cyclin C4: KKQVRMAHLVLT (SEQ ID No: 8) (peptide)
peptide: KKQVRMAHLVLT
modifications: also: fluorescent label Cy5 or FITC, position not given here
B1: the “IC50 of cell proliferation, Hela, C4 delivered with Short6” value turned out to be 80 nM; the “IC50 of cell proliferation, Hela, C4 delivered with short7” value is 45 nM; the “IC50 of cell proliferation, Hela, C4 delivered with short11” value is 150 nM; the “IC50 of cell proliferation, MCF7, C4 delivered with Short6” value was 50 nM. For the same molecule, the “IC50 of cell proliferation, MCF7, C4 delivered with short7” value amounted to 80 nM and the “IC50 of cell proliferation, MCF7, C4 delivered with short11” value worked out at 200 nM.
